The data set deals with the molecule itself. Nature of the data set: SEC; Superdex 200 Increase 10/300; 100 mM Tris-HCl pH 8.5, 150 mM NaCl, 1 mM DTT, 5% glycerol; 0.4 mL/min; His-tag fusion proteins.

B1: 6His-AtFH2-FH2 (domain or fragment, Arabidopsis thaliana, UniProt O22824 438-864, looked up)
chain: EKKVETMKPKLKTLHWDKVRASSSRVMVWDQIKSNSFQVNEEMIETLFKVNDPTSRTRDGVVQSVSQENRFLDPRKSHNIAILLRALNVTADEVCEALIEGNSDTLGPELLECLLKMAPTKEEEDKLKELKDDDDGSPSKIGPAEKFLKALLNIPFAFKRIDAMLYIVKFESEIEYLNRSFDTLEAATGELKNTRMFLKLLEAVLKTGNRMNIGTNRGDAHAFKLDTLLKLVDIKGADGKTTLLHFVVQEIIKFEGARVPFTPSQSHIGDNMAEQSAFQDDLELKKLGLQVVSGLSSQLINVKKAAAMDSNSLINETAEIARGIAKVKEVITELKQETGVERFLESMNSFLNKGEKEITELQSHGDNVMKMVKEVTEYFHGNSETHPFRIFAVVRDFLTILDQVCKEVGRVNERTVYGSMPLHSPSN
notes: Arabidopsis thaliana Formin 2 (AtFH2, At2g43800), FH2 domain; cloned in pET23a; Mainly a dimer by size exclusion chromatography (about 100 kDa); source: E. coli Tuner (DE3) pLysS, purified (Ni-NTA)
Broadly, the stoichiometry N is the number of molecules, sites or subunits per partner or assembly. In the case of B1, the “stoichiometry N” value came to 2.

The record behind these values is publication PMC6126924, “Arabidopsis formin 2 regulates cell-to-cell trafficking by capping and stabilizing actin filaments at plasmodesmata” (eLife, 2018).
